Data on one molecule can be found in patent publication US20220162313A1 (Xencor, published 2022).

This test addresses T1, human SSTR2 (human, UniProt P30874 1-369).
T1 construct: whole, on cells; also called human somatostatin receptor 2; cell surface human SSTR2
The test is described as follows: flow cytometry on human SSTR2-transfected CHO cells, PE-labeled secondary antibody. On the procedure: Cell surface binding of anti-SSTR2 antibodies and exemplary anti-SSTR2×anti-CD3 bispecific antibodies were assessed using human SSTR2-transfected CHO cells. Cells were incubated with indicated test articles for 45 minutes on ice and centrifuged. Cells were resuspended with staining buffer containing phycoerythrin (PE) labeled secondary antibody (2 μg/mL; goat anti-human IgG) and then incubated for 45 minutes on ice. Cells were centrifuged twice and then resuspsended with staining buffer. Binding was measured by flow cytometry (FIGS. 17A-P).
Cell surface binding of XmAb18087 and control anti-RSV×anti-CD3 bispecific antibody (XENP13245) were assessed using humanSSTR2-transfected CHO cells and cynoSSTR2-transfected CHO cells. Cell surface binding was also assessed using parental CHO cells as control. Binding was measured by flow cytometry using phycoerythrin (PE) labeled secondary antibody as generally described in Example 1C.
(In general: Flow cytometry measures light scatter and fluorescence of single cells or particles in a stream.)

T1 sequence (P30874 whole entry): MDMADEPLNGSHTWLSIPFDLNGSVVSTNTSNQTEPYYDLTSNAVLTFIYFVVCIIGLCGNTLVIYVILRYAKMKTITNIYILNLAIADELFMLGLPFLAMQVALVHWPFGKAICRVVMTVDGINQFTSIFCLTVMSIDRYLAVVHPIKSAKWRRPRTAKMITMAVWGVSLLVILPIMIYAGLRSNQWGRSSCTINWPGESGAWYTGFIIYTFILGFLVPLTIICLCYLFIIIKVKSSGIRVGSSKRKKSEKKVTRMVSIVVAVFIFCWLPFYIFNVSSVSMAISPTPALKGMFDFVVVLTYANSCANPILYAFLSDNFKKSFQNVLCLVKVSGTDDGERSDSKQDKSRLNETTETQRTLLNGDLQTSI

B1: XmAb18087 (bispecific antibody)
heavy: EVQLVESGGGLVQPGGSLRLSCAASGFTFSDYGMAWFRQAPGKGLEWVSFISNLGYSIYYADSVKGRFTISRDNAKNSLYLQMNSLRAEDTAVYYCARAPYDYDSFDPMDYWGQGTLVTVSSASTKGPSVFPLAPSSKSTSGGTAALGCLVKDYFPEPVTVSWNSGALTSGVHTFPAVLQSSGLYSLSSVVTVPSSSLGTQTYICNVNHKPSDTKVDKKVEPKSCDKTHTCPPCPAPPVAGPSVFLFPPKPKDTLMISRTPEVTCVVVDVKHEDPEVKFNWYVDGVEVHNAKTKPREEEYNSTYRVVSVLTVLHQDWLNGKEYKCKVSNKALPAPIEKTISKAKGQPREPQVYTLPPSREEMTKNQVSLTCDVSGFYPSDIAVEWESDGQPENNYKTTPPVLDSDGSFFLYSKLTVDKSRWEQGDVFSCSVMHEALHNHYTQKSLSLSPGK
chain: not shown
light: not shown
notes: also called XENP18087; XENP018087
Take B1: the binding result is “binds”.
